The source of these data is publication PMC9439264 (Nature Communications, 2022).

Assay [1] concerns the target T1, HAhr^CA (head region of CA4/2009 HA, degraded HA monomer in the crystal) (Influenza A virus A/California/04/2009 …, strain).
T1 chain: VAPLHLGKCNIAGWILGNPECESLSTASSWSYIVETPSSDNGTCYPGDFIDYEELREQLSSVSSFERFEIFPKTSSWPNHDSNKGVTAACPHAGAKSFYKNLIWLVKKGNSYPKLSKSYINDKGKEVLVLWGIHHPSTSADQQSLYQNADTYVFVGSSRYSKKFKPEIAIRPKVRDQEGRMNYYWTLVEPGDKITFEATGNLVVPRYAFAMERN
Description: crystal structure. Conditions: both partners purified.

Assay [2] deals with T2, HA ectodomain of A/California/04/2009 (H1N1), recombinant (Influenza A virus A/California/04/2009 …, strain).
T2 construct: source: baculovirus (pAcGP67B), H5 insect cells, supernatant purified with Ni-NTA
The assay can be described thus: SEC. The conditions noted are these: both partners purified.

B1: 12H5 Fab (mouse antibody) (Fab, V domains shown)
VH: QIQLVQSGPELKKPGETVRISCKASGYTFTKNGMNWVQQAPGKGLKWVGWINTYTGEPSYADDFKGRFAFSLETSASTAYLQINNLKNEDMAAYFCARMVRDAMDFWGQGTSVTVSS
VL: DIVLTQSPASLAVSLGQRATISCKASQSVDFDGYNYLNWYQQKPGQPPKLLIYAASNLESGIPARFSGSGSGTDFTLNIHPVEEEDAATYFCQQSNEDPYTFGGGTKLEIK
notes: source: papain digestion of mAb 12H5 (mouse ascites, protein A), purified with DEAE-5PW
For the molecule B1, the binding result in assay [1] and in assay [2] was “binds” each time.
